System: Escherichia coli TOP10
Test: shrunken log2 fold change of peptide-encoding DNA abundance (4.5 h post-induction vs induction); higher = less antimicrobial activity (less host growth inhibition)
Settings: time post-induction: 4.5 h; library: site-saturation at positions 5, 18, 19, 20
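Further: peptides expressed intracellularly from a pBAD plasmid library in pooled LB shake-flask culture, induced with 0.3% L-arabinose, DNA abundance read by NGS, three biological replicates, DESeq2 with apeglm shrinkage.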

Sequence	shrunken log2 fold change
RRIRNRPPRLPRPRPRPQVHPRP	-0.161
RRIRNRPPRLPRPRPRPECKPRP	0.0615
RRIRTRPPRLPRPRPRPKNEPRP	0.715
RRIRLRPPRLPRPRPRPSHRPRP	-0.0457
RRIRVRPPRLPRPRPRPVNVPRP	-0.411
RRIRHRPPRLPRPRPRPYHQPRP	-0.981
RRIRHRPPRLPRPRPRPICEPRP	-0.369
RRIRKRPPRLPRPRPRPNWLPRP	0.246
RRIRHRPPRLPRPRPRPKVIPRP	0.109
RRIRKRPPRLPRPRPRPIGYPRP	-0.0204
RRIRYRPPRLPRPRPRPHFCPRP	-0.428
RRIRSRPPRLPRPRPRPPRMPRP	0.274
RRIRLRPPRLPRPRPRPYYAPRP	-0.484
RRIRFRPPRLPRPRPRPMWAPRP	0.0936
RRIRDRPPRLPRPRPRPRDVPRP	0.128
RRIRERPPRLPRPRPRPWNEPRP	-0.351
RRIRVRPPRLPRPRPRPNKFPRP	-0.255
RRIRFRPPRLPRPRPRPWWTPRP	0.0245
RRIRIRPPRLPRPRPRPTSPPRP	0.118
RRIRSRPPRLPRPRPRPIHVPRP	-0.154
RRIRKRPPRLPRPRPRPWMTPRP	-0.13
RRIRCRPPRLPRPRPRPNPWPRP	0.017
RRIRRRPPRLPRPRPRPHASPRP	0.201
RRIRTRPPRLPRPRPRPYKTPRP	-0.315
RRIRIRPPRLPRPRPRPEAAPRP	0.538

Sequence	shrunken log2 fold change
RRIRFRPPRLPRPRPRPADCPRP	-0.282
RRIRLRPPRLPRPRPRPWDVPRP	-0.0498
RRIRNRPPRLPRPRPRPQHRPRP	-0.215
RRIRIRPPRLPRPRPRPFRYPRP	-0.42
RRIRVRPPRLPRPRPRPIGYPRP	0.117
RRIRSRPPRLPRPRPRPRFQPRP	0.233
RRIRIRPPRLPRPRPRPASWPRP	0.0913
RRIRERPPRLPRPRPRPYNHPRP	-0.272
RRIRKRPPRLPRPRPRPWPQPRP	0.0865
RRIRSRPPRLPRPRPRPASTPRP	-0.16
RRIRTRPPRLPRPRPRPAVKPRP	0.106
RRIRGRPPRLPRPRPRPGRTPRP	0.498
RRIRFRPPRLPRPRPRPMWHPRP	0.0814
RRIRKRPPRLPRPRPRPDLEPRP	0.0158
RRIRHRPPRLPRPRPRPIYLPRP	-0.211
RRIRYRPPRLPRPRPRPTKMPRP	-0.22
RRIRRRPPRLPRPRPRPPVEPRP	0.593
RRIRVRPPRLPRPRPRPGCLPRP	0.236
RRIRKRPPRLPRPRPRPQLLPRP	0.261
RRIRVRPPRLPRPRPRPLAWPRP	0.0442
RRIRFRPPRLPRPRPRPEIVPRP	-0.0888
RRIRRRPPRLPRPRPRPMVRPRP	0.276
RRIRERPPRLPRPRPRPPEIPRP	0.115
RRIRLRPPRLPRPRPRPHFYPRP	-0.303
RRIRLRPPRLPRPRPRPNHTPRP	-0.33

Sequence	shrunken log2 fold change
RRIRVRPPRLPRPRPRPGWPPRP	0.433
RRIRFRPPRLPRPRPRPELFPRP	0.15
RRIRCRPPRLPRPRPRPKHRPRP	-0.212
RRIRIRPPRLPRPRPRPLERPRP	0.0105
RRIRHRPPRLPRPRPRPDKEPRP	-0.00149
RRIRDRPPRLPRPRPRPFFRPRP	-0.0152
RRIRFRPPRLPRPRPRPVFEPRP	-0.0387
RRIRKRPPRLPRPRPRPFVDPRP	-0.0489
RRIRQRPPRLPRPRPRPVDNPRP	0.0335
RRIRGRPPRLPRPRPRPPITPRP	0.0357
RRIRYRPPRLPRPRPRPFRLPRP	-0.0183
RRIRNRPPRLPRPRPRPHQFPRP	-0.000243
RRIRSRPPRLPRPRPRPQEFPRP	-0.00884
RRIRARPPRLPRPRPRPGRWPRP	0.609
RRIRIRPPRLPRPRPRPRNYPRP	0.0483
RRIRHRPPRLPRPRPRPIDLPRP	0.036
RRIRQRPPRLPRPRPRPTRVPRP	0.305
RRIRKRPPRLPRPRPRPYIYPRP	-0.0483
RRIRCRPPRLPRPRPRPFFQPRP	-0.152
RRIRGRPPRLPRPRPRPLERPRP	0.577
RRIRHRPPRLPRPRPRPTHDPRP	0.124
RRIRRRPPRLPRPRPRPKLLPRP	0.178
RRIRRRPPRLPRPRPRPYGGPRP	-0.326
RRIRRRPPRLPRPRPRPDNIPRP	0.123
RRIRIRPPRLPRPRPRPSDKPRP	-0.79

— the supplement of paper PMC9112550, “Optimization of the antimicrobial peptide Bac7 by deep mutational scanning” (BMC Biology, 2022)
